Measured values taken from paper PMC7188906.

Key:
human ACKR4-EYFP (human) [1] = biological target: T1, human ACKR4-EYFP (human) (UniProt Q9NPB9)
T1 sequence: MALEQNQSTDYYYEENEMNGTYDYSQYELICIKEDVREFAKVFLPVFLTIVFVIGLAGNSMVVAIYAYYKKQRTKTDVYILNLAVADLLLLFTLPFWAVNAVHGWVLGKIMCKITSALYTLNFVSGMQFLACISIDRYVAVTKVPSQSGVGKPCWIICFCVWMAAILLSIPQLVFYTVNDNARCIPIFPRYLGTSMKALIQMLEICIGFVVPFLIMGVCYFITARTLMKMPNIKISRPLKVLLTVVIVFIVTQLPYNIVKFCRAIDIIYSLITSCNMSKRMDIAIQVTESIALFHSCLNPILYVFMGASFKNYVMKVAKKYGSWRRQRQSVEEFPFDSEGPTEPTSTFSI

human ACKR4-EYFP (human) [2] = biological target: T1, human ACKR4-EYFP (human); remark: listed apart in the source

recombinant human CCL19 (from UniProt Q99731 22-98) (ligand)
EC50 of GRK2-Nluc recruitment to ACKR4-EYFP (BRET, HeLa cells, dose-response) (human ACKR4-EYFP (human) [1]): 35 nM | EC50 of GRK3-Nluc recruitment to ACKR4-EYFP (BRET, HeLa cells, dose-response) (human ACKR4-EYFP (human) [1]): 42 nM | EC50 of β-arrestin1-Nluc recruitment to ACKR4-EYFP (BRET, HeLa cells, graded chemokine) (human ACKR4-EYFP (human) [2]): 76 nM | EC50 of β-arrestin2-Nluc recruitment to ACKR4-EYFP (BRET, HeLa cells, graded chemokine) (human ACKR4-EYFP (human) [2]): 32 nM

recombinant human CCL21 (from UniProt O00585 24-134) (ligand)
EC50 of GRK2-Nluc recruitment to ACKR4-EYFP (BRET, HeLa cells, dose-response) (human ACKR4-EYFP (human) [1]): 129 nM | EC50 of GRK3-Nluc recruitment to ACKR4-EYFP (BRET, HeLa cells, dose-response) (human ACKR4-EYFP (human) [1]): 142 nM | EC50 of β-arrestin1-Nluc recruitment to ACKR4-EYFP (BRET, HeLa cells, graded chemokine) (human ACKR4-EYFP (human) [2]): 240 nM | EC50 of β-arrestin2-Nluc recruitment to ACKR4-EYFP (BRET, HeLa cells, graded chemokine) (human ACKR4-EYFP (human) [2]): 133 nM

recombinant human CCL25 (from UniProt O15444 24-150) (ligand)
EC50 of GRK2-Nluc recruitment to ACKR4-EYFP (BRET, HeLa cells, dose-response) (human ACKR4-EYFP (human) [1]): 87 nM | EC50 of GRK3-Nluc recruitment to ACKR4-EYFP (BRET, HeLa cells, dose-response) (human ACKR4-EYFP (human) [1]): 147 nM | EC50 of β-arrestin1-Nluc recruitment to ACKR4-EYFP (BRET, HeLa cells, graded chemokine) (human ACKR4-EYFP (human) [2]): 115 nM | EC50 of β-arrestin2-Nluc recruitment to ACKR4-EYFP (BRET, HeLa cells, graded chemokine) (human ACKR4-EYFP (human) [2]): 130 nM
